PMC8170675, “Allostery through DNA drives phenotype switching”
Positions count from the first letter of the chain named.

Key:
ComK [1] = target: T1, ComK (Bacillus subtilis, UniProt P40396); assay: smFRET; conditions: amino-C6-dT/dA at dye sites, EMSA: 20 mM Tris pH 7.0, 50 mM L-Arg, 5 mM MgCl2, 150 mM KCl, 10 mM DTT, 0.001% Tween-20, 25 nM DNA, 20 min, smFRET: room temperature, 20 mM DTT
T1 sequence: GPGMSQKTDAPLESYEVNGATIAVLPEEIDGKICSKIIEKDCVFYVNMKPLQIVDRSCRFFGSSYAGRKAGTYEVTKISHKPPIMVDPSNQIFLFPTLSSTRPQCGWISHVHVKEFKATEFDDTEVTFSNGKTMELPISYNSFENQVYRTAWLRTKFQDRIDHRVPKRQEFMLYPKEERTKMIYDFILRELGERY

ComK [2] = target: T1, ComK; assay: smFRET; Hill n 2.28 ± 0.16; unit inferred; EMSA: 20 mM Tris pH 7.0, 50 mM L-Arg, 5 mM MgCl2, 150 mM KCl, 10 mM DTT, 0.001% Tween-20, 25 nM DNA, 20 min; smFRET: room temperature, 50 mM L-Arg, 20 mM DTT; conditions: protein: recombinant; tags: N-terminal His6-HRV3C tag removed; GPG remains at the N-terminus; chain copies: 4; label: AlexaFluor 488 / AlexaFluor 594; blunt
ComK [3] = target: T1, ComK; assay: smFRET; Hill n 3.55 ± 0.12; unit not in visible table header, inferred from fit parameters; EMSA: 20 mM Tris pH 7.0, 50 mM L-Arg, 5 mM MgCl2, 150 mM KCl, 10 mM DTT, 0.001% Tween-20, 25 nM DNA, 20 min; smFRET: room temperature, 50 mM L-Arg, 20 mM DTT; conditions: protein: recombinant; tags: N-terminal His6-HRV3C tag removed; GPG remains at the N-terminus; chain copies: 4; label: AlexaFluor 488 / AlexaFluor 594; blunt
ΔCys ComK = target: T2, ΔCys ComK (Bacillus subtilis, UniProt P40396 1-192, C31A;C39A;C55A;C102A); assay: smFRET; 30 pM DNA, 100 nM protein; EMSA: 20 mM Tris pH 7.0, 50 mM L-Arg, 5 mM MgCl2, 150 mM KCl, 10 mM DTT, 0.001% Tween-20, 25 nM DNA, 20 min; smFRET: room temperature, 50 mM L-Arg, 20 mM DTT; conditions: protein: recombinant; chain copies: 4; label: AlexaFluor 488 / AlexaFluor 594; blunt
T2 sequence: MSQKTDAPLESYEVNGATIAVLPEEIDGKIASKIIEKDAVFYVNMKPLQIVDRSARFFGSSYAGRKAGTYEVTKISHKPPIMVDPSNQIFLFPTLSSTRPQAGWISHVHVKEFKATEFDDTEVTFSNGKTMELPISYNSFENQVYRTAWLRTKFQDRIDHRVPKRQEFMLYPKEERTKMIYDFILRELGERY

ComK [4] = target: T1, ComK; assay: smFRET; Hill n 3.44 ± 0.27; unit inferred; EMSA: 20 mM Tris pH 7.0, 50 mM L-Arg, 5 mM MgCl2, 150 mM KCl, 10 mM DTT, 0.001% Tween-20, 25 nM DNA, 20 min; smFRET: room temperature, 50 mM L-Arg, 20 mM DTT; conditions: protein: recombinant; tags: N-terminal His6-HRV3C tag removed; GPG remains at the N-terminus; chain copies: 4; label: AlexaFluor 488 / AlexaFluor 594; blunt
ComK [5] = target: T1, ComK; assay: cryo-EM; 50 mM L-Arg; two ComK per box; EMSA: 20 mM Tris pH 7.0, 50 mM L-Arg, 5 mM MgCl2, 150 mM KCl, 10 mM DTT, 0.001% Tween-20, 25 nM DNA, 20 min; smFRET: room temperature, 50 mM L-Arg, 20 mM DTT; conditions: protein: recombinant; tags: N-terminal His6-HRV3C tag removed; GPG remains at the N-terminus; chain copies: 4; blunt
ComK [6] = target: T1, ComK; assay: smFRET; Hill n 3.05 ± 0.08; unit inferred; EMSA: 20 mM Tris pH 7.0, 50 mM L-Arg, 5 mM MgCl2, 150 mM KCl, 10 mM DTT, 0.001% Tween-20, 25 nM DNA, 20 min; smFRET: room temperature, 50 mM L-Arg, 20 mM DTT; conditions: protein: recombinant; tags: N-terminal His6-HRV3C tag removed; GPG remains at the N-terminus; chain copies: 4; label: AlexaFluor 488 / AlexaFluor 594; blunt
ComK [7] = target: T1, ComK; assay: smFRET; Hill n 2.97 ± 0.28; unit inferred; EMSA: 20 mM Tris pH 7.0, 50 mM L-Arg, 5 mM MgCl2, 150 mM KCl, 10 mM DTT, 0.001% Tween-20, 25 nM DNA, 20 min; smFRET: room temperature, 50 mM L-Arg, 20 mM DTT; conditions: protein: recombinant; tags: N-terminal His6-HRV3C tag removed; GPG remains at the N-terminus; chain copies: 4; label: AlexaFluor 488 / AlexaFluor 594; blunt
ComK [8] = target: T1, ComK; assay: smFRET; Hill n 2.93 ± 0.28; unit inferred; EMSA: 20 mM Tris pH 7.0, 50 mM L-Arg, 5 mM MgCl2, 150 mM KCl, 10 mM DTT, 0.001% Tween-20, 25 nM DNA, 20 min; smFRET: room temperature, 50 mM L-Arg, 20 mM DTT; conditions: protein: recombinant; tags: N-terminal His6-HRV3C tag removed; GPG remains at the N-terminus; chain copies: 4; label: AlexaFluor 488 / AlexaFluor 594; blunt ends, internal mismatches in spacer
ComK [9] = target: T1, ComK; assay: smFRET; Hill n 4.34 ± 0.32; unit inferred; EMSA: 20 mM Tris pH 7.0, 50 mM L-Arg, 5 mM MgCl2, 150 mM KCl, 10 mM DTT, 0.001% Tween-20, 25 nM DNA, 20 min; smFRET: room temperature, 50 mM L-Arg, 20 mM DTT; conditions: protein: recombinant; tags: N-terminal His6-HRV3C tag removed; GPG remains at the N-terminus; chain copies: 4; label: AlexaFluor 488 / AlexaFluor 594; blunt

comG: isolated box 1 labelled
K half (ComK [1]; Hill n 1.76 ± 0.02, unit inferred): 73 nM

comG: isolated box 2 labelled
K half (ComK [1]; Hill n 1.59 ± 0.09, unit inferred): 48 nM

B1: comK: box 1 labelled (dsDNA)
DNA 1: CTTATGAAAGTAAAATCGGTTTATTACTAGTCATTTAGTACCATTAAATATCATTAAAAGATGATTTTATCTTAAATG
DNA 2: CATTTAAGATAAAATCATCTTTTAATGATATTTAATGGTACTAAATGACTAGTAATAAACCGATTTTACTTTCATAAG
modifications: amino-C6-dT/dA at dye sites
apparent K (half saturation) (ComK [2]): 21 ± 2 nM

B2: comG: box 1 labelled (dsDNA)
DNA 1: CAGTTGAAAGTCTTTTTTCTTGCCAGAAAGAATTGGTTTTTCAGCATATAACATCTCACAAAATCACGTTTTCCCTGTTTGATTACCTTTTCT
DNA 2: AGAAAAGGTAATCAAACAGGGAAAACGTGATTTTGTGAGATGTTATATGCTGAAAAACCAATTCTTTCTGGCAAGAAAAAAGACTTTCAACTG
modifications: amino-C6-dT/dA at dye sites
apparent K (half saturation) (ComK [3]): 15 ± 1 nM

B3: comG: box 2 labelled (dsDNA)
DNA 1: B2 DNA 1
DNA 2: B2 DNA 2
modifications: amino-C6-dT/dA at dye sites
binding result (ΔCys ComK): no binding | apparent K (half saturation) (ComK [4]): 16 ± 1 nM

B4: comG unlabelled (dsDNA)
DNA 1: B2 DNA 1
DNA 2: B2 DNA 2
binding result (ComK [5]): binds

B5: comG GC-72%: box 1 labelled (dsDNA)
DNA 1: B2 DNA 1 with A43G, A46C, T47G, A48C, A53G, T54G
DNA 2: B2 DNA 2 with A40C, T41C, T46G, A47C, T48G, T51C
modifications: amino-C6-dT/dA at dye sites
apparent K (half saturation) (ComK [6]): 17 ± 1 nM

B6: comG GC-55%: box 1 labelled (dsDNA)
DNA 1: B2 DNA 1 with T47G, A48C, T54G
DNA 2: B2 DNA 2 with A40C, T46G, A47C
modifications: amino-C6-dT/dA at dye sites
apparent K (half saturation) (ComK [7]): 16 ± 1 nM

B7: comG Mismatch: box 1 labelled (dsDNA)
DNA 1: B2 DNA 1 with T47A, A48T, T49A, A50T
DNA 2: B2 DNA 2
modifications: amino-C6-dT/dA at dye sites
apparent K (half saturation) (ComK [8]): 14 ± 1 nM

B8: addAB unlabelled (dsDNA)
DNA 1: GATGTGCGGAGATAATCAGCTTTTTATATGTGAAAAGGCCGTTTTTACCAATAGATC
DNA 2: GATCTATTGGTAAAAACGGCCTTTTCACATATAAAAAGCTGATTATCTCCGCACATC
binding result (ComK [5]): binds

B9: addAB1: box 1 labelled (dsDNA)
DNA 1: B8 DNA 1
DNA 2: B8 DNA 2
modifications: amino-C6-dT/dA at dye sites
apparent K (half saturation) (ComK [9]): 25 ± 6 nM
